Experimental data reported in publication PMC2752026 (The EMBO Journal, 2009).

Target: the molecule itself
Assay: crystal structure

B1: major vault protein MVP, as in intact vault particles purified from rat liver (natural protein, rat (endogenous in rat liver), UniProt Q62667 1-861, looked up)
chain: MATEEAIIRIPPYHYIHVLDQNSNVSRVEVGPKTYIRQDNERVLFAPVRMVTVPPRHYCIVANPVSRDTQSSVLFDITGQVRLRHADQEIRLAQDPFPLYPGEVLEKDITPLQVVLPNTALHLKALLDFEDKNGDKVMAGDEWLFEGPGTYIPQKEVEVVEIIQATVIKQNQALRLRARKECFDREGKGRVTGEEWLVRSVGAYLPAVFEEVLDLVDAVILTEKTALHLRALQNFRDLRGVLHRTGEEWLVTVQDTEAHVPDVYEEVLGVVPITTLGPRHYCVILDPMGPDGKNQLGQKRVVKGEKSFFLQPGERLERGIQDVYVLSEQQGLLLKALQPLEEGESEEKVSHQAGDCWLIRGPLEYVPSAKVEVVEERQAIPLDQNEGIYVQDVKTGKVRAVIGSTYMLTQDEVLWEKELPSGVEELLNLGHDPLADRGQKGTAKPLQPSAPRNKTRVVSYRVPHNAAVQVYDYRAKRARVVFGPELVTLDPEEQFTVLSLSAGRPKRPHARRALCLLLGPDFFTDVITIETADHARLQLQLAYNWHFELKNRNDPAEAAKLFSVPDFVGDACKAIASRVRGAVASVTFDDFHKNSARIIRMAVFGFEMSEDTGPDGTLLPKARDQAVFPQNGLVVSSVDVQSVEPVDQRTRDALQRSVQLAIEITTNSQEAAAKHEAQRLEQEARGRLERQKILDQSEAEKARKELLELEAMSMAVESTGNAKAEAESRAEAARIEGEGSVLQAKLKAQALAIETEAELERVKKVREMELIYARAQLELEVSKAQQLANVEAKKFKEMTEALGPGTIRDLAVAGPEMQVKLLQSLGLKSTLITDGSSPINLFSTAFGLLGLGSDGQPPAQK
- stoichiometry N: 78
